Experimental findings from patent US20250042994A1 (HAINAN SIMCERE ZAIMING PHARMACEUTICAL, published 2025) are described below.

B1: F3.64.4 (antibody, human IgG1, V domains shown)
VH: EVQLQQSGPELVKPGASVKISCKASGYTFTDYHINWVKQSHGKSPEWIGDINPNNGGTTYNQKFKDKATLTVDKSSSTAFMELRSLTSEDSAVYYCARFITTVVAWYFDVWGTGTTVTVSS
VL: DIQMTQSPASLSVSVGETVTITCRASENIYSNLAWYQQKQGKSPQLLVYAATNLADGVPSRFSGSGSGTQYSLKINSLQSEDFGNYYCQRFWDTPRTFGGGTKLEIK
notes: human-murine chimeric antibody, human IgG1
B2: F3.13.2 (antibody, human IgG1, V domains shown)
VH: DVQLQESGPGLMKPSQSLSLTCSVTGYSITSGYYWNWIRQFPGNKLEWMGYISYDGSNNYNPSLKNRFSITRDTSKNQFFLKLNSVTTEDTATYYCARRKLTGGPYFDYWGQGTTLTVSS
VL: DIVLTQSPASLAVTLGQRATISCRASESVSFHGFHIMHWYQQKPGQPPKLLIYAASHLVSGVPDRFSGSGSETDFTLNIHPVEEEDAAAYFCQQSVEDPWTFGGGTKLEIK
notes: as for B1
B3: F3.81.2 (antibody, human IgG1, V domains shown)
VH: QVQLQQPGAELVMPGASVKLSCKASAYTFTNYWMHWVKQRPGHGLEWIGEIDPSDSYTDYNQNFKAKATLTVDKSSSTAYMQLSSLTSEDSAVYYCARLMGRYFDVWGTGTTVTVSS
VL: DIVMTQSHKFMSTSVGDRVSITCKASQDVSAAVAWYQQKPGQSPKLLINSASYRYTGVPDRFTGSGSGTDFTFTISSVQAEDLAVYYCQQHYSTPLTFGAGTKLELR
notes: as for B1
B4: F3.109.1 (antibody, human IgG1, V domains shown)
VH: EVQLQQSGAELVRPGSSVKMSCKTSGYTFTSYGINWVKQRPGQGLEWIGYIYIGNDYTEFNEKFKGKATLTSDTSSSTAYMQLSSLTSEDSAIYFCARFYSNSDPMDYWGHGTSVTVSS
VL: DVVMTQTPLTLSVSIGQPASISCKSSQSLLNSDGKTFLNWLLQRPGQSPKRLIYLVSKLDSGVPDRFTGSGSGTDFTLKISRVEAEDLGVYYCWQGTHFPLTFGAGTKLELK
notes: as for B1
B5: F3.83.9 (antibody, human IgG1, V domains shown)
VH: DVQLQESGPGLVKPSQSLSLTCSVTGYSITSGYYWNWIRQFPGNKLEWMGYISYDGGNNYNPSLKNRISITRDTSKNQFFLKLNSVTTEDTATYFCAREDYSNWYFDVWGTGTTVTVSS
VL: DIVLTQSPASLAVSLGQRATISCRASQSVSKSSYSYMHWYQQKPGQSPKLLIKYASILKSGVPARFSGSGSGTDFTLNIHPVEEEDTATYYCQHSWEIPWTFGGGTKLEIK
notes: as for B1
B6: F3.113.16 (antibody, human IgG1, V domains shown)
VH: QVQLQQPGAELVKPGASVKLSCKASGYTFTNYWMQWVKQRPGQGLEWIGEIDPSDSYINYNQKFKGKATLTADTSSSTAYMQLSSLTYEDSAVYYCARPVTVPWYFDVWGTGTTVTVSS
VL: EIVLTQSPTTMAASPGEKITITCSATSSISSNYLHWYQQKPGFSPKLLIYRTSNLASGVPARFSGSGSGTSYSLTIGTMEAEDVATYYCQQGSAIPRIFTFGSGTKLEIK
notes: as for B1
B7: F3.74.4 (antibody, human IgG1, V domains shown)
VH: QVQLQQSGAELVRPGASVTLSCKASGYTFTDYEMHWVKQTPVHGLEWIGGIAPETGLTTYNQKFEDKAILTADKSSRTAYMELRSLTSEDSAVYFCNPNNYGLWGTGTTVTVSS
VL: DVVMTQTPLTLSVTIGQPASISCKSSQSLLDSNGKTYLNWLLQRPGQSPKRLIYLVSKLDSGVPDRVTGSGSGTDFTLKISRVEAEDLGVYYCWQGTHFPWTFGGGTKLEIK
notes: as for B1
B8: F3.114.12 (antibody, human IgG1, V domains shown)
VH: DVQLQESGPGLVKPSQSLSLTCSVTGYSITSGYDWNWIRQFPGNKLEWMGYISYDGKNNYNPSLRNRISITRDTSKNQFFLKLNSVTTEDTATYYCARRDLRGYFDVWGTGTTVTVSS
VL: DIVLTQSPATLSVTPGDRVSLSCRASQSISNYLHWYQQKSHESPRLLIKYASLSISGIPSRFSGSGSGTDFTLSINSVETEDFGVYFCQQSNSWPLTFGAGTKLELK
notes: as for B1

One assay concerns the target T1, human CD19 on CHO-K1-human CD19 cells (human, UniProt P15391 20-556).
T1 construct: whole, on cells; also called CHO-K1-human CD19-2C8
T1 sequence (looked up): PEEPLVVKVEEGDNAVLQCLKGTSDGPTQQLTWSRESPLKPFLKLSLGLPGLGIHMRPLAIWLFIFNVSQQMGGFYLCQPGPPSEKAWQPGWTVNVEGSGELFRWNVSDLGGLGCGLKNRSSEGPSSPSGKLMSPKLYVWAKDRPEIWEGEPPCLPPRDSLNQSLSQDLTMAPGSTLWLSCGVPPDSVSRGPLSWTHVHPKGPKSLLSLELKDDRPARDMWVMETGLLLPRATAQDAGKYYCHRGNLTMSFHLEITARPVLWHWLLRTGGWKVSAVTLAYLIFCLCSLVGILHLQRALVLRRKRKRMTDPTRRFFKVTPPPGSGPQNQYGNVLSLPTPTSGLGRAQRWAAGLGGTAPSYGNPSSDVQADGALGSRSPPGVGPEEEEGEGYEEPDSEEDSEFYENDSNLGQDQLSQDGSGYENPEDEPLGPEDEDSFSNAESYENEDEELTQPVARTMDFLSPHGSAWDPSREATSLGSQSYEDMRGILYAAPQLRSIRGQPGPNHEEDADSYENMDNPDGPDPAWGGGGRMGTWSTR
Nature of the assay: FACS on CHO-K1-human CD19 cells.
For orientation: EC50 means the midpoint of the concentration-response curve. Consider B1, for which a half-maximal effect (EC50) was put at 0.61 nM and the “Maximum mean fluorescence intensity” value was determined as 63700.
With B2, a half-maximal response (EC50) required 2.46 nM and the “Maximum mean fluorescence intensity” value stood at 43900.
The corresponding values for B3 are 1.27 nM and 59600.
B4: the half-maximal effective concentration (EC50) stood at 0.57 nM and the “Maximum mean fluorescence intensity” value was 3980.
Take B5: the EC50 came to 1.34 nM and the “Maximum mean fluorescence intensity” value was determined as 52200.
As for B6, the response was half-maximal at 0.39 nM (EC50) and the “Maximum mean fluorescence intensity” value was determined as 34100.
For the molecule B7, a half-maximal response (EC50) required 4.55 nM and the “Maximum mean fluorescence intensity” value stood at 3850.
With B8, a half-maximal effect (EC50) was put at 2.32 nM and the “Maximum mean fluorescence intensity” value amounted to 50400.

The next assay addresses T2, cynomolgus monkey CD19 on peripheral blood B cells (cynomolgus monkey (Macaca fascicularis), UniProt A0A2K5W8L9 20-557).
T2 construct: whole, on cells; also called cynomolgus monkey B cells
T2 sequence: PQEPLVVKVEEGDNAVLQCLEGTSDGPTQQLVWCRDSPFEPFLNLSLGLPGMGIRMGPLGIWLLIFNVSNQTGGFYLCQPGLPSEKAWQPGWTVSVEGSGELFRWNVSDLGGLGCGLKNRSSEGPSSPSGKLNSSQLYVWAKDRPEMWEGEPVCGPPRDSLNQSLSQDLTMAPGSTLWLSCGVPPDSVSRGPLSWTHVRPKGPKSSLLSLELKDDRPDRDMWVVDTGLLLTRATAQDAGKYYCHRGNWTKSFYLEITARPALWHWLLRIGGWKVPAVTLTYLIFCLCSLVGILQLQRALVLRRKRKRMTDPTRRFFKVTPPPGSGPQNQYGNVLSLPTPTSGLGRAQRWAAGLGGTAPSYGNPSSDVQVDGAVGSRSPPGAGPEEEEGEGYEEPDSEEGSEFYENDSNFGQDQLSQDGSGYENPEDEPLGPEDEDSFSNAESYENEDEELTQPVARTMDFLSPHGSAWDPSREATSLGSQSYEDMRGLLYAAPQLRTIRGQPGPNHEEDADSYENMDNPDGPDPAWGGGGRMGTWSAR
Nature of the assay: FACS, cynomolgus PBMC, CD20+ B cells. The method, then:
The monkey peripheral blood mononuclear cells were extracted from fresh cynomolgus monkey peripheral blood (purchased from Shanghai Medicilon Inc.) according to the instructions of Ficoll-Paque Plus (purchased from GE Healthcae, catalog number: 171440-02). After the cell suspension was centrifuged, the cells were resuspended in PBS containing 1% BSA, and then the cells were counted. […] The mixture was incubated for 1 h at room temperature. After washing the cells three times, APC-labeled secondary antibody anti-human IgG Fc (catalog number: 409306, purchased from Biolegend) was added. After incubation at room temperature in the dark for 30 minutes, the cells were washed 5 times, gently resuspended with PBS containing 1% BSA, and detected and analyzed by FACS (FACS Canto™, purchased from BD Company), in which CD20 was used as a marker of B cells to gate the CD20-positive B cell population, the proportion of the chimeric antibody-labeled positive cells was analyzed, and the proportion of the chimeric antibody positive cell population to B cell population was calculated after treatments with the chimeric antibodies at the concentrations of 100 nM, 10 nM and 1 nM, respectively.
Background: Flow cytometry measures light scatter and fluorescence of single cells or particles in a stream.
B1: the “Proportion of chimeric antibody positive cells to B cells (%) at 1 nM” value (shortened to “Proportion … (%) at 1 nM”) was found to be 1%, the “Proportion of chimeric antibody positive cells to B cells (%) at 10 nM” value (from here on “Proportion … (%) at 10 nM”) was determined as 2% and the “Proportion of chimeric antibody positive cells to B cells (%) at 100 nM” value (from here on “Proportion … (%) at 100 nM”) came out at 9%.
Consider B2, for which the “Proportion … (%) at 1 nM” value stood at 1%, the “Proportion … (%) at 10 nM” value is 3% and the “Proportion … (%) at 100 nM” value turned out to be 8%.
Turning to B3, the “Proportion … (%) at 1 nM” value was found to be 7%, the “Proportion … (%) at 10 nM” value stood at 16% and the “Proportion … (%) at 100 nM” value came out at 38%.
Take B4: the “Proportion … (%) at 1 nM” value stood at 1%, the “Proportion … (%) at 10 nM” value worked out at 1% and the “Proportion … (%) at 100 nM” value was found to be 1%.
On to B5, for which the “Proportion … (%) at 1 nM” value is 58%, the “Proportion … (%) at 10 nM” value came to 97% and the “Proportion … (%) at 100 nM” value is 99%.
As to B6, the “Proportion … (%) at 1 nM” value worked out at 1%, the “Proportion … (%) at 10 nM” value is 1% and the “Proportion … (%) at 100 nM” value was determined as 6%.
As to B7, the “Proportion … (%) at 1 nM” value came out at 1%, the “Proportion … (%) at 10 nM” value was 1% and the “Proportion … (%) at 100 nM” value was 1%.
With B8, the “Proportion … (%) at 1 nM” value amounted to 40%, the “Proportion … (%) at 10 nM” value was found to be 90% and the “Proportion … (%) at 100 nM” value is 99%.

The target in the next assay is T3, monkey CD19 on HEK293T-monkey CD19 cells (monkey).
T3 construct: whole, on cells
Nature of the assay: FACS on HEK293T-monkey CD19 cells. In short, it runs like this:
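Antibody binding was read as MFI by flow cytometry and EC50 was taken from curve fitting. Before that, cells at 2×10⁶ cells/ml in PBS with 2% (w/w) BSA were exposed to samples for 2 h on ice and washed. Parental HEK293T cells were tested the same way.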
As to B1, the EC50 was 3.99 nM and the “Maximum mean fluorescence intensity” value turned out to be 98400.
B2: the midpoint of the response, the EC50, lay at 2.64 nM and the “Maximum mean fluorescence intensity” value turned out to be 66400.
For the molecule B3, the EC50 was determined as 3.44 nM and the “Maximum mean fluorescence intensity” value stood at 153000.
In the case of B4, the “Maximum mean fluorescence intensity” value was 148.
For B5, a half-maximal effect (EC50) was put at 1.12 nM and the “Maximum mean fluorescence intensity” value was 198000.
Take B6: the “Maximum mean fluorescence intensity” value came out at 176.
Consider B7, for which the “Maximum mean fluorescence intensity” value is 121.
Consider B8, for which a half-maximal effect (EC50) was put at 1.56 nM and the “Maximum mean fluorescence intensity” value was 210000.

The target of a further assay is T4, human CD19 on Raji cells (human, UniProt P15391 20-556).
T4 construct: whole, on cells
T4 sequence (looked up): T1 sequence (looked up)
Nature of the assay: FACS on Raji cells.
B1: the EC50 turned out to be 0.43 nM and the “Maximum mean fluorescence intensity” value worked out at 35800.
In the case of B2, a half-maximal effect (EC50) was put at 5.24 nM and the “Maximum mean fluorescence intensity” value turned out to be 27100.
As to B3, the EC50 came out at 0.68 nM and the “Maximum mean fluorescence intensity” value turned out to be 31300.
In the case of B4, the response was half-maximal at 0.44 nM (EC50) and the “Maximum mean fluorescence intensity” value came to 29900.
B5: it took 1.75 nM to reach a half-maximal effect (EC50) and the “Maximum mean fluorescence intensity” value came to 29700.
B6: a half-maximal effect (EC50) was put at 0.96 nM and the “Maximum mean fluorescence intensity” value worked out at 28800.
As to B7, the midpoint of the response, the EC50, lay at 3.41 nM and the “Maximum mean fluorescence intensity” value worked out at 30100.
For B8, a half-maximal effect (EC50) was put at 3.34 nM and the “Maximum mean fluorescence intensity” value was found to be 28700.
